Data published in US20240343811A1 (SHANDONG SIMCERE BIOPHARMACUTICAL, published 2024).
Like-named read-outs stand apart in the source and are kept apart here.

Key:
[1] = molecular target: T1, human CD16a (158V), full length, on cells (human, UniProt P08637 17-254); assay: cell-based or functional assay
[2] = molecular target: T2, human CD16b (NA1), full length, on FlpinCHO cells (human, UniProt O75015 17-200); assay: FACS on FlpinCHO cells
T2 construct: also called FlpinCHO-human CD16b (NA1)
T2 chain: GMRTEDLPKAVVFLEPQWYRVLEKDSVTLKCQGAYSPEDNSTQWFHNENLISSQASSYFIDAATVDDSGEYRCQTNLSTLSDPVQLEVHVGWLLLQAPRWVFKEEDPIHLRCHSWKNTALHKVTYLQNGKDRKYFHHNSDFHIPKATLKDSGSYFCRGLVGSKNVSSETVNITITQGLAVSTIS
Method: (§1) The required cells were scale-up cultured in a T-75 cell culture flask to the logarithmic growth phase. The medium was aspirated, and the cells were washed twice with a PBS buffer and then digested with trypsin. After the digestion was terminated, the cells were washed twice with the PBS buffer. The cells were counted, and then the cell pellet was resuspended with a [PBS+2% (w/w) BSA] blocking solution to 2×10⁶ cells/ml, and added to a 96-well FACS reaction plate at 50 μl/well. […] 50 μl/well of the antibody to be detected was added at different concentrations, and incubated on ice for 1 hour. […] The mixture was centrifuged and washed 5 times with PBS, and FACS (FACS Canto II, purchased from BD Company) was used for detection and result analysis. Data analysis was performed by software (CellQuest) to obtain the mean fluorescence intensity (MFI) of the cells. Then, software (GraphPad Prism8) was used for analysis, data fitting and EC50 value calculation.
(§2) The binding of an antibody to be detected to FlpinCHO-human CD16b cells was detected according to the method of Example 3.1.

[3] = molecular target: T3, human CD16b (NA2), full length, on FlpinCHO cells (human, UniProt O75015 17-200); assay: FACS on FlpinCHO cells
T3 construct: also called FlpinCHO-human CD16b (NA2)
T3 chain: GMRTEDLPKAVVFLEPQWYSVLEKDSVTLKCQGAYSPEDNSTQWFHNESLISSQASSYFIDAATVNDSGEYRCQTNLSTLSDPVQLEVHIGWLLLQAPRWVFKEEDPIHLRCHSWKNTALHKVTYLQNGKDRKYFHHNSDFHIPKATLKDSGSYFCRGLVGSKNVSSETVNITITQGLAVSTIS
Method: as §1, §2

Human CD16a (158F)-his = molecular target: T4, Human CD16a (158F)-his (human); assay: SPR (Biacore), antibody captured on Protein A
T4 construct: entry holds ECD, AVI tag, linker and His tag
T4 sequence (chain, as listed by the source limits assumed): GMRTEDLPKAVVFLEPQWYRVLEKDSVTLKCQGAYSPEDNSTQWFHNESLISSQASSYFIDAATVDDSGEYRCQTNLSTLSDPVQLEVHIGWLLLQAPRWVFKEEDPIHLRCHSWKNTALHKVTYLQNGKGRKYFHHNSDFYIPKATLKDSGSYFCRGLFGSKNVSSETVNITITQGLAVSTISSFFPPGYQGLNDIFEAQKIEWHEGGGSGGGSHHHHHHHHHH
Method: (§3) A sample buffer and a running buffer were HBS-EP+ (10 mM HEPES, 150 mM NaCl, 3 mM EDTA and 0.05% surfactant P20) (GE Healthcare; BR-1006-69). The flow-through cell was set to 25° C. The sample block was set to 16° C. Both were pretreated with the running buffer. In each cycle, an antibody to be detected was first captured with a Protein A chip, and then a single concentration of CD16 antigen protein was injected. The binding and dissociation processes of the antibody and the antigen protein were recorded, and finally Glycine pH 1.5 (GE Healthcare; BR-1003-54) was used to complete chip regeneration. Binding was measured by injecting different concentrations of recombinant human CD16-ECD his proteins in a solution for 240 s with a flow rate of 30 μL/min, wherein a total of 5 concentrations were prepared by using 200 nM as a starting concentration (see the detailed results for the actual concentration in the test) and performing a 1:1 dilution. The dissociation phase was monitored for up to 600 s and was triggered by switching from a sample solution to a running buffer. The surface was regenerated by washing with a 10 mM glycine solution (pH 1.5) for 30 s at a flow rate of 30 μL/min. Bulk refractive index difference was corrected by subtracting the response obtained from the goat anti-human Fc surface. Blank injection was also subtracted (=double reference). For calculation of apparent KD and other kinetic parameters, Langmuir 1:1 model was used.

[4] = molecular target: T5, human CD16a (158F), full length, on FlpinCHO cells (human, UniProt P08637 17-254); assay: FACS on FlpinCHO cells
T5 sequence (P08637 17-254 limits assumed): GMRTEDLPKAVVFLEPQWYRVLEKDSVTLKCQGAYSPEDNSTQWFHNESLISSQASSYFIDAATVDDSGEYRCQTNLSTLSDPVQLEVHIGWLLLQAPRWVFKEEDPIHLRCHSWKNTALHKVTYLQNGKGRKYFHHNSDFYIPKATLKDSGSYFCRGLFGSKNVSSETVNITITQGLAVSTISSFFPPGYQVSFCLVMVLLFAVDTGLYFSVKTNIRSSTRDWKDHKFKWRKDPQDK
Method: as §1
(§4) The binding of a humanized antibody to FlpinCHO-human CD16a cells was detected according to the method of Example 3.1.

[5] = molecular target: T1, human CD16a (158V), full length, on …; assay: FACS on FlpinCHO cells
Method: as §1, §4

Human CD16a (158V)-his = molecular target: T6, Human CD16a (158V)-his (human); assay: SPR (Biacore), antibody captured on Protein A
T6 construct: entry holds ECD, AVI tag, linker and His tag
T6 sequence (chain, as listed by the source limits assumed): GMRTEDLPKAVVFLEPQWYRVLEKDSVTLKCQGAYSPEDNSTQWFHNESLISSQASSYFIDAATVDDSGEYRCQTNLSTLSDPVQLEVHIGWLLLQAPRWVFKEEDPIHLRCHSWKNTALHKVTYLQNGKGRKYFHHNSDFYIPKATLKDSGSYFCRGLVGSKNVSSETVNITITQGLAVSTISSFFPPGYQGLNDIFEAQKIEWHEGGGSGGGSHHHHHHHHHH
Method: as §3

[6] = molecular target: T7, CD16 on primary human NK cells (human, UniProt P08637 17-254); assay: FACS on human NK cells
T7 construct: whole, on cells; also called resting NK cells
T7 sequence (P08637 17-254): as the sequence (P08637 17-254 limits assumed) above
Method: as §1
The binding of an antibody to be detected to freshly prepared human NK cells (Milestone Biotechnologies, catalog number: PB56-N-Custom) was detected according to the method of Example 3.1.

[7] = molecular target: T5, human CD16a (158F), full length, on …; assay: FACS on FlpinCHO cells; remark: listed apart in the source
Method: as §1

[8] = molecular target: T1, human CD16a (158V), full length, on …; assay: FACS on FlpinCHO cells; remark: listed apart in the source
Method: as §1

[9] = molecular target: T5, human CD16a (158F), full length, on …; assay: FACS, biotinylated antibody, +10 mg/mL human immunoglobulin
Method: as §1, with “The” for “The required cells were scale-up cultured in a T-75 cell culture flask to the logarithmic growth phase. The”
(§5) An antibody to be detected was labeled in advance according to the instructions of a biotin labeling kit (EZ-Link™ NHS-PEG4 Biotinylation Kit, purchased from Thermofisher Scientific, catalog number: 21455). […] Detection was performed according to the method of Example 3.1, wherein the biotinylated antibody was detected with fluorescein APC-labeled Streptavidin (High Concentration) (purchased from Biolegend, catalog number: 405243).

[10] = molecular target: T1, human CD16a (158V), full length, on …; assay: as above
Method: as §1, with “The” for “The required cells were scale-up cultured in a T-75 cell culture flask to the logarithmic growth phase. The”
as §5

[11] = molecular target: T1, human CD16a (158V), full length, on …; assay: cell-based or functional assay; remark: listed apart in the source
[12] = molecular target: T5, human CD16a (158F), full length, on …; assay: FACS, biotinylated antibody
Method: as §1, with “The” for “The required cells were scale-up cultured in a T-75 cell culture flask to the logarithmic growth phase. The”
as §5

[13] = molecular target: T1, human CD16a (158V), full length, on …; assay: FACS, biotinylated antibody
Method: as §1, with “The” for “The required cells were scale-up cultured in a T-75 cell culture flask to the logarithmic growth phase. The”
as §5

[14] = molecular target: T2, human CD16b (NA1), full length, on …; assay: FACS on FlpinCHO cells
Method: as §1, §2

[15] = molecular target: T3, human CD16b (NA2), full length, on …; assay: FACS on FlpinCHO cells
Method: as §1, §2

T1 sequence (P08637 17-254 F176V limits assumed): as the sequence (P08637 17-254 limits assumed) above, with F160V counted along it

B1: VHH06-03 humanized VHH-Fc antibody (Fc fusion)
chain: EVQLVESGGGVVQPGGSLRLSCAASGSTWTTYAVRWYRQAPGKQREWVAFISVDGSTNYADSVKGRFTISRDNSKNTVYLQMNSLRAEDTADYICRVGGQYWGQGTMVTVSSEPKSSDKTHTCPPCPAPEEFGGPSVFLFPPKPKDTLMISRTPEVTCVVVAVSHEDPEVKFNWYVDGVEVHNAKTKPREEQYNSTYRVVSVLTVLHQDWLNGKEYKCKVSNKALPAPIEKTISKAKGQPREPQVYTLPPSREEMTKNQVSLTCLVKGFYPSDIAVEWESNGQPENNYKTTPPVLDSDGSFFLYSKLTVDKSRWQQGNVFSCSVMHEALHNHYTQKSLSLSPGK
EC50, activation activity for Jurkat cell [1]: 20 pM | Maximum fluorescence value [1]: 171000 | EC50 [2]: 350 pM | Maximum mean fluorescence intensity [2]: 56900 | Maximum mean fluorescence intensity [3]: 174 | binding result [3]: no binding (tested: 100 nM) | Kd (Human CD16a (158F)-his): 28700 pM | koff (Human CD16a (158F)-his): 0.00129 s⁻¹ | kon (Human CD16a (158F)-his): 44800 M⁻¹ s⁻¹ | EC50 [4]: 470 pM | Maximum mean fluorescence intensity [4]: 9140 | EC50 [5]: 490 pM | Maximum mean fluorescence intensity [5]: 8390

B2: VHH15 VHH-Fc antibody (Fc fusion)
chain: EVQLVESGGGLVQAGGSLRLSCVASTSTLTTYAVRWYRQAPGKQREWVAFISVDGNTNYPDSVKGRFIVSRDNAKNTVYLQMNSLKPEDTADYICRAGGQYWGQGTQVTVSSEPKSSDKTHTCPPCPAPEFEGGPSVFLFPPKPKDTLMISRTPEVTCVVVAVSHEDPEVKFNWYVDGVEVHNAKTKPREEQYNSTYRVVSVLTVLHQDWLNGKEYKCKVSNKALPAPIEKTISKAKGQPREPQVYTLPPSREEMTKNQVSLTCLVKGFYPSDIAVEWESNGQPENNYKTTPPVLDSDGSFFLYSKLTVDKSRWQQGNVFSCSVMHEALHNHYTQKSLSLSPGK
Kd (Human CD16a (158V)-his): 14100 pM | koff (Human CD16a (158V)-his): 0.0016 s⁻¹ | kon (Human CD16a (158V)-his): 114000 M⁻¹ s⁻¹ | Kd (Human CD16a (158F)-his): 42800 pM | koff (Human CD16a (158F)-his): 0.00273 s⁻¹ | kon (Human CD16a (158F)-his): 63800 M⁻¹ s⁻¹ | EC50 [6]: 740 pM | Maximum mean fluorescence intensity [6]: 2400 | EC50 [7]: 440 pM | Maximum mean fluorescence intensity [7]: 5600 | EC50 [8]: 690 pM | Maximum mean fluorescence intensity [8]: 6490 | EC50 [9]: 1410 pM | Maximum mean fluorescence intensity [9]: 6570 | EC50 [10]: 1410 pM | Maximum mean fluorescence intensity [10]: 9030 | EC50, activation activity for Jurkat cell [11]: 20 pM | Maximum fluorescence value [11]: 167000 | EC50 [12]: 400 pM | Maximum mean fluorescence intensity [12]: 5240 | EC50 [13]: 490 pM | Maximum mean fluorescence intensity [13]: 7260 | EC50 [14]: 440 pM | Maximum mean fluorescence intensity [14]: 52100 | Maximum mean fluorescence intensity [15]: 178 | binding result [15]: no binding (tested: 100 nM)

B3: VHH10 VHH-Fc antibody (Fc fusion)
chain: QVQLVESGGGLVQAGGSLRLSCVGSSSTLTTYAVRWYRQAPGKQREWVAFISVDGSTNYPDSVKGRFIVSRDNAKNTVYLQMNSLKPEDTADYICRAGGQYWGQGTQVTVSSEPKSSDKTHTCPPCPAPEFEGGPSVFLFPPKPKDTLMISRTPEVTCVVVAVSHEDPEVKFNWYVDGVEVHNAKTKPREEQYNSTYRVVSVLTVLHQDWLNGKEYKCKVSNKALPAPIEKTISKAKGQPREPQVYTLPPSREEMTKNQVSLTCLVKGFYPSDIAVEWESNGQPENNYKTTPPVLDSDGSFFLYSKLTVDKSRWQQGNVFSCSVMHEALHNHYTQKSLSLSPGK
Kd (Human CD16a (158V)-his): 13600 pM | koff (Human CD16a (158V)-his): 0.00146 s⁻¹ | kon (Human CD16a (158V)-his): 107000 M⁻¹ s⁻¹ | Kd (Human CD16a (158F)-his): 39900 pM | koff (Human CD16a (158F)-his): 0.00247 s⁻¹ | kon (Human CD16a (158F)-his): 61800 M⁻¹ s⁻¹ | EC50 [6]: 450 pM | Maximum mean fluorescence intensity [6]: 2450 | EC50 [7]: 440 pM | Maximum mean fluorescence intensity [7]: 5620 | EC50 [8]: 630 pM | Maximum mean fluorescence intensity [8]: 6480 | EC50 [9]: 1200 pM | Maximum mean fluorescence intensity [9]: 6040 | EC50 [10]: 1390 pM | Maximum mean fluorescence intensity [10]: 9200 | EC50, activation activity for Jurkat cell [11]: 20 pM | Maximum fluorescence value [11]: 157000 | EC50 [12]: 310 pM | Maximum mean fluorescence intensity [12]: 4690 | EC50 [13]: 420 pM | Maximum mean fluorescence intensity [13]: 6980 | EC50 [14]: 340 pM | Maximum mean fluorescence intensity [14]: 51400 | Maximum mean fluorescence intensity [15]: 140 | binding result [15]: no binding (tested: 100 nM)
